{"source": "paper PMC3871058", "key": {"[1]": {"target": "Protein A (UniProt P38507)", "test": "SPR; Protein A (0.25 mg/mL, 90 min) adsorbed to the gold surface of a Topas chip, blocked with 1 mg/mL BSA; 500 uL of 0.565 mg/mL IgG1 added for 90 min, rinsed with 10 mM Tris-HCl; plateaus in 10 mM Tris-HCl compared; measured together with EIS in one PDMS flow cell"}, "[2]": {"target": "Protein A (UniProt P38507)", "test": "electrochemical impedance spectroscopy (EIS); Protein A (0.25 mg/mL, 90 min) adsorbed to the gold surface of a Topas chip, blocked with 1 mg/mL BSA; 500 uL of 0.565 mg/mL IgG1 added for 90 min, rinsed with 10 mM Tris-HCl; impedance at 251 Hz, AC amplitude 10 mV; measured together with SPR in one PDMS flow cell"}}, "data": [{"substance": "immunoglobulin-G (IgG1) (antibody)", "values": [{"measurement": "local minimum (RU) after IgG1 and the last rinse", "setting": "[1]", "result": 460, "unit": "RU"}, {"measurement": "minimum shift, normalised to the initial value", "setting": "[1]", "result": 35.3, "unit": "%"}, {"measurement": "impedance at 251 Hz after IgG1 and the last rinse", "setting": "[2]", "result": 51, "unit": "kΩ"}, {"measurement": "increase in impedance, normalised to the initial value", "setting": "[2]", "result": 18.6, "unit": "%"}]}]}
